# B1: synthetic antibody sAB11 (Fab, V domains shown)
# VH: EVQLVESGGGLVQPGGSLRLSCAASGFNFYYYSIHWVRQAPGKGLEWVASISPYYGSTYYADSVKGRFTISADTSKNTAYLQMNSLRAEDTAVYYCARSMNWYYSSPYGMSQGMDYWGQGTLVTVSS
# VL: DIQMTQSPSSLSASVGDRVTITCRASQSVSSAVAWYQQKPGKAPKLLIYSASSLYSGVPSRFSGSRSGTDFTLTISSLQPEDFATYYCQQGSSSPLTFGQGTKVEIK
# What was measured:
# [1] = molecular target: Pseudomonas aeruginosa PhuR refolded from inclusion bodies (Pseudomonas aeruginosa PAO1, UniProt Q9HV88); assay: SEC
# [2] = molecular target: Pseudomonas aeruginosa PhuR, natively expressed (purified from E. coli outer membranes, heme-bound) (Pseudomonas aeruginosa PAO1, UniProt Q9HV88); assay: ELISA
binder,measurement,setting,value
B1,binding result,[1],binds
same,EC50,[2],~9 nM

# From PMC10418163 (bioRxiv, 2024)
